What was measured:
[1] = target: T1, AFP158/HLA-A*02:01 complex (human); experiment: SPR, scFv captured, pMHC in flow;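 note: complex injected at several concentrations over crude scFv, association then running-buffer dissociation, KD estimated from kinetic on- and off-rate constants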
T1 construct: flowed over the chip in SPR; also called AFP158 pro
Description: The experiment was carried out as follows. The crude scFv protein were captured onto the sensorchip. Different concentrations (320, 160, 40 nM) of AFP158/HLA-A*02:01 complex flowed over the sensorchip surface, and were allowed to bind the antibody fragment for 100 s followed by injection of the running buffer to allow dissociation of the complex. On-rate (kd) and off-rate (kd) were calculated based on association and dissociation curve, and were used to estimate the equilibrium dissociation constant (KD).

[2] = target: T1, AFP158/HLA-A*02:01 complex; experiment: SPR, KD ratio to AS170036 VL1VH1;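 note: crude scFv captured on a sensor chip, peptide–HLA complex passed over at several concentrations, association then buffer dissociation, KD derived from on- and off-rates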

Binder | Kd [1] [nM] | Affinity increase [2] [fold]
HG56E (scFv, AS170036 VL1VH1 scFv mutein) scFv: QSALTQPRSVSGSPGQSVTISCAGTSSDVGSENYVSWYQQHPGKAPKLMIYQVNKRASGVPDRFSGSKSGNTASLTISGLQAEDEADYYCASYRSSDHNIVFGGGTKLTVLGGGGSGGGGSGGGGSEVQLVESGGGLVQPGGSLRLSCAASGFTFSSYAMSWVRQAPGKGLEWVSTINSGTESPYYADSVKGRFTISRDNSKNTLYLQMNSLRAEDTAVYYCAKNFFDGSWFLGPPAMDYWGQGTLVTVSSHHHHHH | 240 | 1
HG56M (scFv, AS170036 VL1VH1 scFv mutein) scFv: QSALTQPRSVSGSPGQSVTISCAGTSSDVGSENYVSWYQQHPGKAPKLMIYQVNKRASGVPDRFSGSKSGNTASLTISGLQAEDEADYYCASYRSSDHNIVFGGGTKLTVLGGGGSGGGGSGGGGSEVQLVESGGGLVQPGGSLRLSCAASGFTFSSYAMSWVRQAPGKGLEWVSTINSGTMSPYYADSVKGRFTISRDNSKNTLYLQMNSLRAEDTAVYYCAKNFFDGSWFLGPPAMDYWGQGTLVTVSSHHHHHH | 130 | 1.7
HG56L (scFv, AS170036 VL1VH1 scFv mutein) scFv: QSALTQPRSVSGSPGQSVTISCAGTSSDVGSENYVSWYQQHPGKAPKLMIYQVNKRASGVPDRFSGSKSGNTASLTISGLQAEDEADYYCASYRSSDHNIVFGGGTKLTVLGGGGSGGGGSGGGGSEVQLVESGGGLVQPGGSLRLSCAASGFTFSSYAMSWVRQAPGKGLEWVSTINSGTLSPYYADSVKGRFTISRDNSKNTLYLQMNSLRAEDTAVYYCAKNFFDGSWFLGPPAMDYWGQGTLVTVSSHHHHHH | 290 | 0.8
HG56R (scFv, AS170036 VL1VH1 scFv mutein) scFv: QSALTQPRSVSGSPGQSVTISCAGTSSDVGSENYVSWYQQHPGKAPKLMIYQVNKRASGVPDRFSGSKSGNTASLTISGLQAEDEADYYCASYRSSDHNIVFGGGTKLTVLGGGGSGGGGSGGGGSEVQLVESGGGLVQPGGSLRLSCAASGFTFSSYAMSWVRQAPGKGLEWVSTINSGTRSPYYADSVKGRFTISRDNSKNTLYLQMNSLRAEDTAVYYCAKNFFDGSWFLGPPAMDYWGQGTLVTVSSHHHHHH | 300 | 0.8
HG56N (scFv, AS170036 VL1VH1 scFv mutein; also called AS170036 VL1VH1-VHG56N) scFv: QSALTQPRSVSGSPGQSVTISCAGTSSDVGSENYVSWYQQHPGKAPKLMIYQVNKRASGVPDRFSGSKSGNTASLTISGLQAEDEADYYCASYRSSDHNIVFGGGTKLTVLGGGGSGGGGSGGGGSEVQLVESGGGLVQPGGSLRLSCAASGFTFSSYAMSWVRQAPGKGLEWVSTINSGTNSPYYADSVKGRFTISRDNSKNTLYLQMNSLRAEDTAVYYCAKNFFDGSWFLGPPAMDYWGQGTLVTVSSHHHHHH | 92 | 2.5
HG56Y (scFv, AS170036 VL1VH1 scFv mutein; also called AS170036 VL1VH1-VHG56Y) scFv: QSALTQPRSVSGSPGQSVTISCAGTSSDVGSENYVSWYQQHPGKAPKLMIYQVNKRASGVPDRFSGSKSGNTASLTISGLQAEDEADYYCASYRSSDHNIVFGGGTKLTVLGGGGSGGGGSGGGGSEVQLVESGGGLVQPGGSLRLSCAASGFTFSSYAMSWVRQAPGKGLEWVSTINSGTYSPYYADSVKGRFTISRDNSKNTLYLQMNSLRAEDTAVYYCAKNFFDGSWFLGPPAMDYWGQGTLVTVSSHHHHHH | 35 | 6.6
HG108A (scFv, AS170036 VL1VH1 scFv mutein; also called AS170036 VL1VH1-VHG108A) scFv: QSALTQPRSVSGSPGQSVTISCAGTSSDVGSENYVSWYQQHPGKAPKLMIYQVNKRASGVPDRFSGSKSGNTASLTISGLQAEDEADYYCASYRSSDHNIVFGGGTKLTVLGGGGSGGGGSGGGGSEVQLVESGGGLVQPGGSLRLSCAASGFTFSSYAMSWVRQAPGKGLEWVSTINSGTGSPYYADSVKGRFTISRDNSKNTLYLQMNSLRAEDTAVYYCAKNFFDGSWFLAPPAMDYWGQGTLVTVSSHHHHHH | 42 | 5.5
HG56T (scFv, AS170036 VL1VH1 scFv mutein) scFv: QSALTQPRSVSGSPGQSVTISCAGTSSDVGSENYVSWYQQHPGKAPKLMIYQVNKRASGVPDRFSGSKSGNTASLTISGLQAEDEADYYCASYRSSDHNIVFGGGTKLTVLGGGGSGGGGSGGGGSEVQLVESGGGLVQPGGSLRLSCAASGFTFSSYAMSWVRQAPGKGLEWVSTINSGTTSPYYADSVKGRFTISRDNSKNTLYLQMNSLRAEDTAVYYCAKNFFDGSWFLGPPAMDYWGQGTLVTVSSHHHHHH | 340 | 0.7
HG56Q (scFv, AS170036 VL1VH1 scFv mutein) scFv: QSALTQPRSVSGSPGQSVTISCAGTSSDVGSENYVSWYQQHPGKAPKLMIYQVNKRASGVPDRFSGSKSGNTASLTISGLQAEDEADYYCASYRSSDHNIVFGGGTKLTVLGGGGSGGGGSGGGGSEVQLVESGGGLVQPGGSLRLSCAASGFTFSSYAMSWVRQAPGKGLEWVSTINSGTQSPYYADSVKGRFTISRDNSKNTLYLQMNSLRAEDTAVYYCAKNFFDGSWFLGPPAMDYWGQGTLVTVSSHHHHHH | 240 | 1
HG56F (scFv, AS170036 VL1VH1 scFv mutein; also called AS170036 VL1VH1-VHG56F) scFv: QSALTQPRSVSGSPGQSVTISCAGTSSDVGSENYVSWYQQHPGKAPKLMIYQVNKRASGVPDRFSGSKSGNTASLTISGLQAEDEADYYCASYRSSDHNIVFGGGTKLTVLGGGGSGGGGSGGGGSEVQLVESGGGLVQPGGSLRLSCAASGFTFSSYAMSWVRQAPGKGLEWVSTINSGTFSPYYADSVKGRFTISRDNSKNTLYLQMNSLRAEDTAVYYCAKNFFDGSWFLGPPAMDYWGQGTLVTVSSHHHHHH | 98 | 2.3
HG56W (scFv, AS170036 VL1VH1 scFv mutein) scFv: QSALTQPRSVSGSPGQSVTISCAGTSSDVGSENYVSWYQQHPGKAPKLMIYQVNKRASGVPDRFSGSKSGNTASLTISGLQAEDEADYYCASYRSSDHNIVFGGGTKLTVLGGGGSGGGGSGGGGSEVQLVESGGGLVQPGGSLRLSCAASGFTFSSYAMSWVRQAPGKGLEWVSTINSGTWSPYYADSVKGRFTISRDNSKNTLYLQMNSLRAEDTAVYYCAKNFFDGSWFLGPPAMDYWGQGTLVTVSSHHHHHH | 130 | 1.7
HG56H (scFv, AS170036 VL1VH1 scFv mutein) scFv: QSALTQPRSVSGSPGQSVTISCAGTSSDVGSENYVSWYQQHPGKAPKLMIYQVNKRASGVPDRFSGSKSGNTASLTISGLQAEDEADYYCASYRSSDHNIVFGGGTKLTVLGGGGSGGGGSGGGGSEVQLVESGGGLVQPGGSLRLSCAASGFTFSSYAMSWVRQAPGKGLEWVSTINSGTHSPYYADSVKGRFTISRDNSKNTLYLQMNSLRAEDTAVYYCAKNFFDGSWFLGPPAMDYWGQGTLVTVSSHHHHHH | 150 | 1.5
HG56S (scFv, AS170036 VL1VH1 scFv mutein) scFv: QSALTQPRSVSGSPGQSVTISCAGTSSDVGSENYVSWYQQHPGKAPKLMIYQVNKRASGVPDRFSGSKSGNTASLTISGLQAEDEADYYCASYRSSDHNIVFGGGTKLTVLGGGGSGGGGSGGGGSEVQLVESGGGLVQPGGSLRLSCAASGFTFSSYAMSWVRQAPGKGLEWVSTINSGTSSPYYADSVKGRFTISRDNSKNTLYLQMNSLRAEDTAVYYCAKNFFDGSWFLGPPAMDYWGQGTLVTVSSHHHHHH | 160 | 1.5
HG56K (scFv, AS170036 VL1VH1 scFv mutein) scFv: QSALTQPRSVSGSPGQSVTISCAGTSSDVGSENYVSWYQQHPGKAPKLMIYQVNKRASGVPDRFSGSKSGNTASLTISGLQAEDEADYYCASYRSSDHNIVFGGGTKLTVLGGGGSGGGGSGGGGSEVQLVESGGGLVQPGGSLRLSCAASGFTFSSYAMSWVRQAPGKGLEWVSTINSGTKSPYYADSVKGRFTISRDNSKNTLYLQMNSLRAEDTAVYYCAKNFFDGSWFLGPPAMDYWGQGTLVTVSSHHHHHH | 350 | 0.7

Reference: patent US20240279318A1 (NANJING LEGEND BIOTECH, published 2024)
